Test results reported in patent publication US20140154255A1 (AbbVie / Abbott, published 2014).

Key:
[1] = biological target: T1, unlabeled human VEGF (ELISA coat) (human, UniProt P15692-4 27-191, limits assumed); assay: ELISA 1 hr, EC50 WT/EC50 mutant
Protocol: (§1) To detect identified variants binding to antigen, ELISA plates (Nunc-Immuno MaxiSorp plates, Nalge Nunc, Rochester, N.Y.) were coated overnight at 4° C. with unlabeled human VEGF at 1 μg/mL in 0.2 M sodium carbonate-bicarbonate buffer (pH 9.4, Pierce, Rockford, Ill.). The plates were then blocked with SuperBlock Blocking Buffer (Pierce, Rockford, Ill.) for 30 min and washed with Washing Buffer (PBS containing 0.1% Tween 20). All the washing steps were performed for three times. […] The plates were washed and 100 μL of goat anti-human kappa HRP-conjugated antibody (Southern Biotech, Birmingham, Ala.) diluted at 1:1000 in ELISA buffer was added to each well. After 30 minutes of incubation, plates were washed and bound antibodies were detected by addition of TMB 1 Component HRP Microwell substrate (BioFx #TMBW-1000-01). The reaction was terminated by addition of 100 μL/well of 650 nM Stop Reagent for TMB Microwell substrate and the absorbance was measured at 650 nm using a VERSAmax microplate reader (Molecular Devices, Sunnyvale, Calif.). Data were fitted using nonlinear regression with the software […]

[2] = biological target: T2, human VEGF-A residues 27-191 of Accession #AAV38412 (human, UniProt P15692 27-191); assay: BIAcore SPR, KD WT/KD mutant
T2 construct: range 27-191
Protocol: (§2) The binding kinetics and affinity of the antibodies for VEGF (human VEGF-A residues 27-191 of Accession #AAV38412) was determined by using a BIAcore T200 surface plasmon resonance system (BIAcore, GE Healthcare, Piscataway, N.J.). Coupling running buffer was HBS-EP+ running buffer (10 mM HEPES, 150 mM sodium chloride, 3 mM EDTA 0.05% P-20, pH 7.4); assay running buffer was HBS-EP+ with 300 mM sodium chloride and 0.1 mg/mL BSA (Sigma A7906). Polyclonal goat anti-human Fc (Thermo Scientific prod#31125) was first immobilized to the biosensor surface in 10 mM sodium acetate, pH 4.5 using standard BIAcore amine coupling reagents (N-ethyl-N′-dimethylamino-propylcarbodiimide, EDC; N-hydroxysuccinimide, NHS; and ethanolamine HCl, pH 8.5). For binding kinetics assay a series of cycles were performed, each cycle consisted of 1) mAb capture, 2) Ag or buffer injection, 3) dissociation phase and 4) regeneration. Briefly, anti-VEGF antibodies were captured on parallel surfaces at a low flow rate of 10 μL/min. Capture levels were kept low to minimize avidity due to the dimeric nature of VEGF. No capture of the antibody was made on the reference surface to serve for primary referencing and as a negative control. Subsequently, VEGF or buffer only was injected to all flow cells at a flow rate of 80 μL/min for three minutes to monitor association followed by a 20-minute flow of assay rinning buffer at a flow rate of 80 μL/min to monitor dissociation. […] At the end of each cycle the surface was regenerated with 10 mM glycine, pH 1.5 at a flow rate of 60 μL/min in pulses of 60 and 10 sec. Binding data were fit to the 1:1 Langmuir model with mass transport term included using Biacore T200 Evaluation Software to determine the binding constants.

[3] = biological target: T2, human VEGF-A residues 27-191 of …; assay: BIAcore SPR
Protocol: as §2

[4] = biological target: T1, unlabeled human VEGF (ELISA coat); assay: ELISA overnight, EC50 WT/EC50 mutant
Protocol: as §1

T1 sequence (P15692 other isoform, or with tags, fused parts or gaps limits assumed): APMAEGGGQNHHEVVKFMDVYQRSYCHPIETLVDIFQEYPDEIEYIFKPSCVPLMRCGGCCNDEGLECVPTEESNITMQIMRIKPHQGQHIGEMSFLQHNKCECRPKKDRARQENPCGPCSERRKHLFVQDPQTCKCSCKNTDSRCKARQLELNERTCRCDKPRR
T2 sequence (P15692 other isoform, or with tags, fused parts or gaps limits assumed): as above

Row | Binder | ELISA 1hr binding [1] | affinity improvement [2] | Kd [3] | koff [3] | kon [3] | ELISA o/n binding [4]
1 | T30 K (anti-VEGF IgG) (antibody, V domains shown, copies: 2 + 2) VH: EVQLVESGGGLVQPGGSLRLSCAASGYTFKNYGMNWVRQAPGKGLEWVGWINTYTGEPTYAADFKRRFTFSLDTSKSTAYLQMNSLRAEDTAVYYCAKYPHYYGSSHWYFDVWGQGTLVTVSS VL: DIQMTQSPSSLSASVGDRVTITCSASQDISNYLNWYQQKPGKAPKVLIYFTSSLHSGVPSRFSGSGSGTDFTLTISSLQPEDFATYYCQQYSTVPWTFGQGTKVEIK | 2.5 fold | 0.5 fold | 0.92 nM | 8.53e-05 s⁻¹ | 92800 M⁻¹ s⁻¹ | 3.1 fold
2 | T28 G (anti-VEGF IgG) (antibody, V domains shown, copies: 2 + 2) VH: EVQLVESGGGLVQPGGSLRLSCAASGYGFTNYGMNWVRQAPGKGLEWVGWINTYTGEPTYAADFKRRFTFSLDTSKSTAYLQMNSLRAEDTAVYYCAKYPHYYGSSHWYFDVWGQGTLVTVSS VL: DIQMTQSPSSLSASVGDRVTITCSASQDISNYLNWYQQKPGKAPKVLIYFTSSLHSGVPSRFSGSGSGTDFTLTISSLQPEDFATYYCQQYSTVPWTFGQGTKVEIK | 5.4 fold | 1.3 fold | 0.374 nM | 4.97e-05 s⁻¹ | 133000 M⁻¹ s⁻¹ | 3.9 fold
3 | N31 L (anti-VEGF IgG) (antibody, V domains shown, copies: 2 + 2) VH: EVQLVESGGGLVQPGGSLRLSCAASGYTFTLYGMNWVRQAPGKGLEWVGWINTYTGEPTYAADFKRRFTFSLDTSKSTAYLQMNSLRAEDTAVYYCAKYPHYYGSSHWYFDVWGQGTLVTVSS VL: DIQMTQSPSSLSASVGDRVTITCSASQDISNYLNWYQQKPGKAPKVLIYFTSSLHSGVPSRFSGSGSGTDFTLTISSLQPEDFATYYCQQYSTVPWTFGQGTKVEIK | 1.1 fold | 1.8 fold | 0.278 nM | 6.05e-05 s⁻¹ | 218000 M⁻¹ s⁻¹ | 1.1 fold
4 | N31 W (anti-VEGF IgG) (antibody, V domains shown, copies: 2 + 2) VH: EVQLVESGGGLVQPGGSLRLSCAASGYTFTWYGMNWVRQAPGKGLEWVGWINTYTGEPTYAADFKRRFTFSLDTSKSTAYLQMNSLRAEDTAVYYCAKYPHYYGSSHWYFDVWGQGTLVTVSS VL: DIQMTQSPSSLSASVGDRVTITCSASQDISNYLNWYQQKPGKAPKVLIYFTSSLHSGVPSRFSGSGSGTDFTLTISSLQPEDFATYYCQQYSTVPWTFGQGTKVEIK | 2.1 fold | 3.1 fold | 0.164 nM | 3.42e-05 s⁻¹ | 209000 M⁻¹ s⁻¹ | 1.3 fold
5 | S100a G (anti-VEGF IgG) (antibody, V domains shown, copies: 2 + 2) VH: EVQLVESGGGLVQPGGSLRLSCAASGYTFTNYGMNWVRQAPGKGLEWVGWINTYTGEPTYAADFKRRFTFSLDTSKSTAYLQMNSLRAEDTAVYYCAKYPHYYGGSHWYFDVWGQGTLVTVSS VL: DIQMTQSPSSLSASVGDRVTITCSASQDISNYLNWYQQKPGKAPKVLIYFTSSLHSGVPSRFSGSGSGTDFTLTISSLQPEDFATYYCQQYSTVPWTFGQGTKVEIK | 3.7 fold | 0.8 fold | 0.602 nM | 0.000133 s⁻¹ | 221000 M⁻¹ s⁻¹ | 3.7 fold
6 | T28 R (anti-VEGF IgG) (antibody, V domains shown, copies: 2 + 2) VH: EVQLVESGGGLVQPGGSLRLSCAASGYRFTNYGMNWVRQAPGKGLEWVGWINTYTGEPTYAADFKRRFTFSLDTSKSTAYLQMNSLRAEDTAVYYCAKYPHYYGSSHWYFDVWGQGTLVTVSS VL: DIQMTQSPSSLSASVGDRVTITCSASQDISNYLNWYQQKPGKAPKVLIYFTSSLHSGVPSRFSGSGSGTDFTLTISSLQPEDFATYYCQQYSTVPWTFGQGTKVEIK | 1.4 fold | 0.6 fold | 0.675 nM | 6.44e-05 s⁻¹ | 95400 M⁻¹ s⁻¹ | 1.8 fold
7 | N31 H (anti-VEGF IgG) (antibody, V domains shown, copies: 2 + 2) VH: EVQLVESGGGLVQPGGSLRLSCAASGYTFTHYGMNWVRQAPGKGLEWVGWINTYTGEPTYAADFKRRFTFSLDTSKSTAYLQMNSLRAEDTAVYYCAKYPHYYGSSHWYFDVWGQGTLVTVSS VL: DIQMTQSPSSLSASVGDRVTITCSASQDISNYLNWYQQKPGKAPKVLIYFTSSLHSGVPSRFSGSGSGTDFTLTISSLQPEDFATYYCQQYSTVPWTFGQGTKVEIK | 2.2 fold | 2.5 fold | 0.172 nM | 3.17e-05 s⁻¹ | 184000 M⁻¹ s⁻¹ | 1.9 fold
8 | S100a Q (anti-VEGF IgG) (antibody, V domains shown, copies: 2 + 2) VH: EVQLVESGGGLVQPGGSLRLSCAASGYTFTNYGMNWVRQAPGKGLEWVGWINTYTGEPTYAADFKRRFTFSLDTSKSTAYLQMNSLRAEDTAVYYCAKYPHYYGQSHWYFDVWGQGTLVTVSS VL: DIQMTQSPSSLSASVGDRVTITCSASQDISNYLNWYQQKPGKAPKVLIYFTSSLHSGVPSRFSGSGSGTDFTLTISSLQPEDFATYYCQQYSTVPWTFGQGTKVEIK | 3.7 fold | 1.1 fold | 0.451 nM | 6.04e-05 s⁻¹ | 134000 M⁻¹ s⁻¹ | 3.6 fold
9 | S100a T (anti-VEGF IgG) (antibody, V domains shown, copies: 2 + 2) VH: EVQLVESGGGLVQPGGSLRLSCAASGYTFTNYGMNWVRQAPGKGLEWVGWINTYTGEPTYAADFKRRFTFSLDTSKSTAYLQMNSLRAEDTAVYYCAKYPHYYGTSHWYFDVWGQGTLVTVSS VL: DIQMTQSPSSLSASVGDRVTITCSASQDISNYLNWYQQKPGKAPKVLIYFTSSLHSGVPSRFSGSGSGTDFTLTISSLQPEDFATYYCQQYSTVPWTFGQGTKVEIK | 2.3 fold | 2.2 fold | 0.197 nM | 4.15e-05 s⁻¹ | 211000 M⁻¹ s⁻¹ | 2.7 fold
10 | S100a A (anti-VEGF IgG) (antibody, V domains shown, copies: 2 + 2) VH: EVQLVESGGGLVQPGGSLRLSCAASGYTFTNYGMNWVRQAPGKGLEWVGWINTYTGEPTYAADFKRRFTFSLDTSKSTAYLQMNSLRAEDTAVYYCAKYPHYYGASHWYFDVWGQGTLVTVSS VL: DIQMTQSPSSLSASVGDRVTITCSASQDISNYLNWYQQKPGKAPKVLIYFTSSLHSGVPSRFSGSGSGTDFTLTISSLQPEDFATYYCQQYSTVPWTFGQGTKVEIK | 2.2 fold | 1.3 fold | 0.337 nM | 7.68e-05 s⁻¹ | 228000 M⁻¹ s⁻¹ | 2.1 fold
11 | N31 Y (anti-VEGF IgG) (antibody, V domains shown, copies: 2 + 2) VH: EVQLVESGGGLVQPGGSLRLSCAASGYTFTYYGMNWVRQAPGKGLEWVGWINTYTGEPTYAADFKRRFTFSLDTSKSTAYLQMNSLRAEDTAVYYCAKYPHYYGSSHWYFDVWGQGTLVTVSS VL: DIQMTQSPSSLSASVGDRVTITCSASQDISNYLNWYQQKPGKAPKVLIYFTSSLHSGVPSRFSGSGSGTDFTLTISSLQPEDFATYYCQQYSTVPWTFGQGTKVEIK | 3 fold | 6.6 fold | 0.077 nM | 1.77e-05 s⁻¹ | 230000 M⁻¹ s⁻¹ | 1.5 fold
12 | H97 A (anti-VEGF IgG) (antibody, V domains shown, copies: 2 + 2) VH: EVQLVESGGGLVQPGGSLRLSCAASGYTFTNYGMNWVRQAPGKGLEWVGWINTYTGEPTYAADFKRRFTFSLDTSKSTAYLQMNSLRAEDTAVYYCAKYPAYYGSSHWYFDVWGQGTLVTVSS VL: DIQMTQSPSSLSASVGDRVTITCSASQDISNYLNWYQQKPGKAPKVLIYFTSSLHSGVPSRFSGSGSGTDFTLTISSLQPEDFATYYCQQYSTVPWTFGQGTKVEIK | 4 fold | 0.2 fold | 2.2 nM | 0.000451 s⁻¹ | 205000 M⁻¹ s⁻¹ | 3.4 fold
